From publication PMC3743062 (Scientific Reports, 2013) come the findings set out here.

The experiment addresses Calmodulin (CaM), wild type (UniProt P0DP23 1-149). Nature of the experiment: crystal structure.

B1: NaV1.6 IQ motif (1893-1914), the part of the fusion CaM-(Gly)5-NaV1.6 IQ (domain or fragment)
chain: EEVSAVVLQRAYRGHLARRGFI
For the molecule B1, the binding result was “binds”.
